Assay results: paper PMC5640987 (Nature, 2017)

Tests used:
Tor1 = Tor1 (budding yeast (endogenous), UniProt P35169 1-2470); test: cryo-EM structure
cryo-EM structure = target: the molecule itself; test: cryo-EM structure

Tor1, sequence (P35169 whole entry): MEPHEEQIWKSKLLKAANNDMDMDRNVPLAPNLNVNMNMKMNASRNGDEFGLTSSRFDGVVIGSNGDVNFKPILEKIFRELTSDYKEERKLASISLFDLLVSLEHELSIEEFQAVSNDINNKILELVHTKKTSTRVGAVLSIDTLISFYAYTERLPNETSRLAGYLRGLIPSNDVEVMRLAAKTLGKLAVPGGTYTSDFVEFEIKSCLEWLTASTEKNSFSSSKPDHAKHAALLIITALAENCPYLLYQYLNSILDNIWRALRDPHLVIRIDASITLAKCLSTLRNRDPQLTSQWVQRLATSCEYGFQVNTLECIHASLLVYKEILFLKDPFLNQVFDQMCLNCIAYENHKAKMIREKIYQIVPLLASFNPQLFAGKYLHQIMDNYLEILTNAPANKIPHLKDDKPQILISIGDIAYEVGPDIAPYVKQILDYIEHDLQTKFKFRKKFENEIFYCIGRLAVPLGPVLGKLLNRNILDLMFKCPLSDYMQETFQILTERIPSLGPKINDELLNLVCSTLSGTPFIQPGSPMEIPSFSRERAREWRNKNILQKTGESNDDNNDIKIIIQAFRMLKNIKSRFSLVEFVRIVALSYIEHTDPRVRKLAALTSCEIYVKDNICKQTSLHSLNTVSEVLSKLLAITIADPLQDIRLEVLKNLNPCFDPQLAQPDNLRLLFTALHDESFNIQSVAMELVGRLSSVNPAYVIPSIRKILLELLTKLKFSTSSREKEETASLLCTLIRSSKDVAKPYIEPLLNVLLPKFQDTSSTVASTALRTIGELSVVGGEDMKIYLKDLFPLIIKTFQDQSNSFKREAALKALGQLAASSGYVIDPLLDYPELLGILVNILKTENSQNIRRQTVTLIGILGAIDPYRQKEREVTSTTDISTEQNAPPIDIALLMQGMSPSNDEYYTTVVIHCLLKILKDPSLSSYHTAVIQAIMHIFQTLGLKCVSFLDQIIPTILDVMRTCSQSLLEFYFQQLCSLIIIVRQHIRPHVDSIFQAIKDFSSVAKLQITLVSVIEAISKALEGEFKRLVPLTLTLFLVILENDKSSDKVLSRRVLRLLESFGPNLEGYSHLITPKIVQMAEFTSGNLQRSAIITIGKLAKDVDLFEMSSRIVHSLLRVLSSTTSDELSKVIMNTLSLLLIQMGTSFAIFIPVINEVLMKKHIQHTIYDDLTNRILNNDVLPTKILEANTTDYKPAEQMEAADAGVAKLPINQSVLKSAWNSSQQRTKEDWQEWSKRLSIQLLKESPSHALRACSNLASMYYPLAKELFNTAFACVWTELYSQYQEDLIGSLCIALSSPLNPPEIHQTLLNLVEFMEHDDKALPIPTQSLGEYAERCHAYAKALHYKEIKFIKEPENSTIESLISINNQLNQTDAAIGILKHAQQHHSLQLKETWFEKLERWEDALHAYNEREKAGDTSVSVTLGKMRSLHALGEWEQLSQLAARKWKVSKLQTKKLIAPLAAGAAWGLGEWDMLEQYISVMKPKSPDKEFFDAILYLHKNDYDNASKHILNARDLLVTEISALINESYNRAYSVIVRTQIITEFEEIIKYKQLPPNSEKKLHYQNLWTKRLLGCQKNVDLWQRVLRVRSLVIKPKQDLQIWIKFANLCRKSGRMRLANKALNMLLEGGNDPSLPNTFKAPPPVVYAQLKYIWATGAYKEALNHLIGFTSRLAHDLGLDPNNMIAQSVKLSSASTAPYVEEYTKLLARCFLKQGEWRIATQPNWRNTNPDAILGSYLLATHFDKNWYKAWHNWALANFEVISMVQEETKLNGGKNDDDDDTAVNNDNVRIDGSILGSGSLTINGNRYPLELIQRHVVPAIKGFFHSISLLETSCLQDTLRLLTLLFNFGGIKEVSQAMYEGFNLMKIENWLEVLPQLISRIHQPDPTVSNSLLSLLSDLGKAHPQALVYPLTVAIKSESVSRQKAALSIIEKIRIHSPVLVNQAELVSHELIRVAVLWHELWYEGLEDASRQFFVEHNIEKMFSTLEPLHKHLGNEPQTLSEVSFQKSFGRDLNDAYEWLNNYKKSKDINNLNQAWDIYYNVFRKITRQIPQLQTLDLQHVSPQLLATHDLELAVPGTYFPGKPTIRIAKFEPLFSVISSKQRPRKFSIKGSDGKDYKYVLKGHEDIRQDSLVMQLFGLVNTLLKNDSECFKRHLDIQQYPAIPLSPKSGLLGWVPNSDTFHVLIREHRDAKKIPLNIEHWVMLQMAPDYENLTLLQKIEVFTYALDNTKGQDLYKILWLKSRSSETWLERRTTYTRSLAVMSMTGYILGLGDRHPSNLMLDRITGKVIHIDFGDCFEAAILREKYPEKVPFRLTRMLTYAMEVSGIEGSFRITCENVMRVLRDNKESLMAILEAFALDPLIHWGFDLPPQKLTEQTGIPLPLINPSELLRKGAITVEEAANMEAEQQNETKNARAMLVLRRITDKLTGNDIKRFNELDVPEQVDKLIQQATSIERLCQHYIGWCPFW

B1: Kog1 in the purified TORC1 helix (natural protein)
chain: MPEIYGPQPLKPLNTVMRHGFEEQYQSDQLLQSLANDFIFYFDDKRHKTNGNPIPEEDKQRDVNRYYQPITDWKIMKDRQKTVSAALLLCLNLGVDPPDVMKTHPCARVEAWVDPLNFQDSKKAIEQIGKNLQAQYETLSLRTRYKQSLDPCVEDVKRFCNSLRRTSKEDRILFHYNGHGVPKPTKSGEIWVFNRGYTQYIPVSLYDLQTWLGAPCIFVYDCNSAENILINFQKFVQKRIKDDEEGNHDVAAPSPTSAYQDCFQLASCTSDELLLMSPELPADLFSCCLTCPIEISIRIFLMQSPLKDSKYKIFFENSTSNQPFGDSKNSFKSKIPNVNIPGMLSDRRTPLGELNWIFTAITDTIAWTSLPRPLFKKLFRHDLMIAALFRNFLLAKRIMPWYNCHPVSDPELPDSITTHPMWKSWDLAMDEVLTKIVIDLKNAPPATALESQMILQQQETLQNGGSSKSNAQDTKAGSIQTQSRFAVANLSTMSLVNNPALQSRKSISLQSSQQQLQQQQQQQQQFTGFFEQNLTAFELWLKYASNVRHPPEQLPIVLQVLLSQVHRIRALVLLSRFLDLGPWAVYLSLSIGIFPYVLKLLQSPAPELKPILVFIWARIMSIDYKNTQSELIKEKGYMYFVTVLVPDWGVNGMSATNGSAMINSGNPLTMTASQNINGPSSRYYERQQGNRTSNLGHNNLPFYHSNDTTDEQKAMAVFVLASFVRNFPLGQKNCFSLELVNKLCFYIDNSEIPLLRQWCVILLGLLFADNPLNRFVCMNTGAVEILLKSLKDPVPEVRTASIFALKHFISGFQDAEVILRLQQEFEEQYQQLHSQLQHLQNQSHLQQQQSQQQQQHLEQQQMKIEKQIRHCQVMQNQLEVIDLRKLKRQEIGNLISILPLINDGSSLVRKELVVYFSHIVSRYSNFFIVVVFNDLLEEIKLLEKSDINTRNTSDKYSVSQGSIFYTVWKSLLILAEDPFLENKELSKQVIDYILLELSAHKELGGPFAVMEKFLLKRSSKAHQTGKFGFNSSQVQFVKSSLRSFSPNERVDNNAFKKEQQQHDPKISHPMRTSLAKLFQSLGFSESNSDSDTQSSNTSMKSHTSKKGPSGLYLLNGNNNIYPTAETPRFRKHTEPLQLPLNSSFLDYSREYFQEPQMKKQEADEPGSVEYNARLWRRNRNETIIQETQGEKKLSIYGNWSKKLISLNNKSQPKLMKFAQFEDQLITADDRSTITVFDWEKGKTLSKFSNGTPFGTKVTDLKLINEDDSALLLTGSSDGVIKIYRDYQDVDTFKIVSAWRGLTDMLLTPRSTGLLTEWLQIRGSLLTTGDVKVIRVWDAHTETVEVDIPAKTSSLITSLTADQLAGNIFVAGFADGSLRVYDRRLDPRDSMIRRWRAGNDKQGVWINNVHLQRGGYRELVSGATNGVVELWDIRSEDPVESFVDQNVTSQYGSQQKPTTMTCMQVHEHAPIIATGTKQIKIWTTSGDLLNSFKNSHNNGVTSTLAATGIPKSLSYSSTSDAFLSSMAFHPHRMMIAATNSHDSIVNIYKCEDERIDYF
- binding result (Tor1): binds
- binding result (cryo-EM structure): binds
